Columns and labels:
[1] = Quantitative microdialysis of unbound brain extracellular fluid (bECF) concentration after IV injection; assay type: in vivo, rat; details: rats, 125I-labeled, 120 μg, dialysate over 360 minutes, FIG. 4
Source text: The estimated molecular weights of Chain A, Cobrotoxin, Chain A, Cobrotoxin B are 6.9±0.6 KDa; the estimated molecular weights of a cobrotoxins complexes extracted from crude venom ranged from approximately 6.5 KDa to 15 KDa. Quantitative microdialysis (QMD) is used to determine the absolute unbound brain extracellular fluid (bECF) concentration of Chain A, Cobrotoxin, Chain A, Cobrotoxin B, and the cobrotoxins complexes. QMD is the only technique that enables sampling of bECF in conscious animals and provides direct evidence of exposure at extracellular target sites (Kielbasa and Stratford, Jr. 2015)
QMD consists of implanting a probe in rat (FIG.-3). The membrane of the probe will allow the exchange of perfusate with bECF, so the concentration of Chain A, Cobrotoxin, Chain A, Cobrotoxin B, and a cobrotoxins complexes in bECF could be measured through dialysate. […] In response, an in vivo recovery rate test of the probe (MD-2200) was performed on 125I-labeled Chain A, Cobrotoxin, Chain A, Cobrotoxin B, and a cobrotoxins complexes, each with three different concentrations of 5, 25, and 50 ng/ml as perfusate, with a flow rate of 2 μL/min was perfused through the probe. During microdialysis, the dialysate was collected every 10 minutes for an hour, then tested using SN629B-radioimmunoassay counter to calculate cpm. […] The recovery rate (by loss) % was calculated as: […]

Kunming mice [2] = assay: Acetic acid writhing test, nasal administration; assay type: in vivo; details: for frequency of writhing induced by acetic acid: 30, 45 or 60 μg/kg nasal; for frequency of writhing induced by acetic acid / ED50 of the anti-nociceptive effect of acetic acid induced writhing / time at which analgesic effect started: mice; for duration of analgesic effect / ED50 of the anti-nociceptive effect of acetic acid induced writhing / time at which analgesic effect started: nasal administration; for duration of analgesic effect: after drug administration
Protocol: Writhing test for the evaluation of analgesic effect by nasal administration METHOD: A total number of 60 Kunming mice were used, 10 per group, with a weight of 20±2 g. […] The analgesic effect started at 30 minutes and lasted at least for 6 hours after drug administration.

Kunming mice [3] = assay: Respiratory inhibition test; assay type: in vivo; details: effective dose of 60 μg/kg, 10 Kunming mice
Source text: 4) Respiratory inhibition test Chain A, Cobrotoxin and Chain A, Cobrotoxin B were separately administered to 10 Kunming mice of 20±2 g.

Kunming mice [4] = assay: Acetic acid writhing test, parenteral (iv) injection; assay type: in vivo; details: for inhibitory rate of mice writhing / time at which analgesic effect started: 60 μg/kg iv; for inhibitory rate of mice writhing: 90 minutes after administration; for time at which analgesic effect started / frequency of writhing induced by acetic acid / ED50 of the anti-nociceptive effect of acetic acid induced writhing: mice; for frequency of writhing induced by acetic acid: 30, 45 or 60 μg/kg iv; for ED50 of the anti-nociceptive effect of acetic acid induced writhing: iv
Protocol: Writhing test for the evaluation of analgesic effect by parenteral injection The writhing test is a chemical method used to induce pain of peripheral origin by injection of irritant principles like acetic acid in mice. Analgesic effect of the test compound is inferred from the decrease in the frequency of writhing.
METHOD: A total number of 60 Kunming mice were used, 10 per group, with a weight of 20±2 g. […] At dose of 60 μg/kg (iv), The analgesic effect started at 30 minutes, and could reach 60˜70% inhibitory rate of mice writhing at 90 minutes after administration. The ED50 of the anti-nociceptive effect of acetic acid induced writhing was 40˜50 μg/kg in the writhing test for Chain A, Cobrotoxin and Chain A, Cobrotoxin B.

Kunming mice [5] = assay: Acetic acid writhing test, oral administration; assay type: in vivo; details: for frequency of writhing induced by acetic acid: 160, 320 or 480 μg/kg oral; for ED50 of the anti-nociceptive effect of acetic acid induced writhing: oral administration
Source text: Writhing test for the evaluation of analgesic effect by oral administration METHOD: A total number of 60 Kunming mice were used, 10 per group, with a weight of 20±2 g.

nAChR = target: T1, nAChR (Rattus norvegicus, UniProt P09660+P25108+P25110); assay: 125I labeled-αBtx-nAChR binding inhibition test (radio-immunoprecipitation); details: nAChR crude extract from rat skeletal muscle; approximate
T1 construct: nAChR crude extract from rat skeletal muscle; from tissue; host or cells: rat skeletal muscle (crude extract)
T1 sequence (P25108 21-457): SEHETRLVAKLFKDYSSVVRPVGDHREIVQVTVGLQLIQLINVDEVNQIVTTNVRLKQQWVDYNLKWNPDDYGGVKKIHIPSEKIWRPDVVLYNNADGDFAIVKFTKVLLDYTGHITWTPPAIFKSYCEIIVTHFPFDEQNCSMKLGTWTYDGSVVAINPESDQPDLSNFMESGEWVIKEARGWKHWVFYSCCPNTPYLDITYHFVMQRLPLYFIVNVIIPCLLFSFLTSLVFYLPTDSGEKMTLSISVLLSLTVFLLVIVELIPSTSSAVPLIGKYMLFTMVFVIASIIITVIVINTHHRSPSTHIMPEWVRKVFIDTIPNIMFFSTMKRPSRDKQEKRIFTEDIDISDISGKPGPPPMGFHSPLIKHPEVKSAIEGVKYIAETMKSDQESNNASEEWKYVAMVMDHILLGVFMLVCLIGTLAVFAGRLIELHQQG
T1 sequence (P25110 22-517): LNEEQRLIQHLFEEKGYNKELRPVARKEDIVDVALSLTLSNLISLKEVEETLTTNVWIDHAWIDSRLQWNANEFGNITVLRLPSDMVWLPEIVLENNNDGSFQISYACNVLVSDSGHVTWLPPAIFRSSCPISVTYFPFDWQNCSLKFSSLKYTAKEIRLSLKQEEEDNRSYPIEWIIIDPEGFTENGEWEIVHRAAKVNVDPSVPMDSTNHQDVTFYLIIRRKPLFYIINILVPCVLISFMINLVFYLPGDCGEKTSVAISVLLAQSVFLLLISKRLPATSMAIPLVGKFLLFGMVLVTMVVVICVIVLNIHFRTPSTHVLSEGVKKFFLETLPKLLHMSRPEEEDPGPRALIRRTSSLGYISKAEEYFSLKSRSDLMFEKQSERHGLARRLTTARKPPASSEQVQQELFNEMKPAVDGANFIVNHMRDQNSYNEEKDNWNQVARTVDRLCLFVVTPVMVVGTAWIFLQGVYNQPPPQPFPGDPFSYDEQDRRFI
T1 sequence (P09660 21-494): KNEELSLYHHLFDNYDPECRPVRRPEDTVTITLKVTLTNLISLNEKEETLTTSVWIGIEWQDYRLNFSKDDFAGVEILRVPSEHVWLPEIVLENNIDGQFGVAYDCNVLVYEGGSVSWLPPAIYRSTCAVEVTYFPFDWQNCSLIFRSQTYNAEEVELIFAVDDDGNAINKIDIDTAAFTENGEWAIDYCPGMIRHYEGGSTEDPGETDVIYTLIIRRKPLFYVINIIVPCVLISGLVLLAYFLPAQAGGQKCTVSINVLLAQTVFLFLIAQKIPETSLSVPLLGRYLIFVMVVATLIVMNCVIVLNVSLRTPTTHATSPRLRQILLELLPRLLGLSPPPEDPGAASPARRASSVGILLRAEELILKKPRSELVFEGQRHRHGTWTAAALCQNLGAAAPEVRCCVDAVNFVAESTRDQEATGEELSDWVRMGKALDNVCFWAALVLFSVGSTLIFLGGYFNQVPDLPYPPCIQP
T1 sequence (P25109 24-501 partner): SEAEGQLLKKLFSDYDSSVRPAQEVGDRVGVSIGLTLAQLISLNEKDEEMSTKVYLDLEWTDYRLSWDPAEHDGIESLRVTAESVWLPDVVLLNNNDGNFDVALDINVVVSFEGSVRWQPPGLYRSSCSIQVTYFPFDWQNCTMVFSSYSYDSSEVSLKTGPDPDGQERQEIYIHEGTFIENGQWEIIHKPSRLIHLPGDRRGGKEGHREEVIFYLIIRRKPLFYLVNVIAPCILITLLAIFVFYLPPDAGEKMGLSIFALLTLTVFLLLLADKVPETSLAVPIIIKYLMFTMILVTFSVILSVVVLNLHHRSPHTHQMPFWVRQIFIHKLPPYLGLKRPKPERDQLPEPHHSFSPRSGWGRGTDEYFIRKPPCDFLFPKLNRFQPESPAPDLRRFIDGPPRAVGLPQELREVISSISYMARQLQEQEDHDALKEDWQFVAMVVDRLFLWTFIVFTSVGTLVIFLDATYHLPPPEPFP
Source text: As shown in FIG.-2, a total of 12 fractions from the aforementioned ion-exchange chromatography were further desalted and purified by a reverse-phase HPLC (RP-HPLC) with Vydac RP-C18 (4.6×250 mm, 5.0 um). Fractions A and B were identified as high-affinity cobrotoxins with enhanced binding ability to nAChR in a later 125I labeled-αBtx-nAChR binding inhibition test. • 2) Screening and selection of single cobrotoxin molecule with high affinity binding to nAChR for better drug target engagement The 125I labeled-α-bungarotoxin(αBtx)-nAChR binding inhibition test was performed to evaluate the affinities of different cobrotoxins molecules. […] Higher the affinity of cobrotoxin with nAChR, greater the inhibitory rate toward α-bungarotoxin's binding to nAChR. In our radio-immunoprecipitation test, only nAChR bonded α-bungarotoxin will be precipitated with nicotinic acetylcholine antibody (mAb 35) and Rabbit Anti-Rat IgG, whilst unbounded α-bungarotoxin will be washed out. By testing the concentration of bonded α-bungarotoxin, we can determine the inhibitory rates of different cobrotoxins molecules isolated in step 1).
Calculation of “125I-αBtx-nAChR binding inhibitory rate (%)” […]
The 125I-αBtx-nAChR binding inhibition experiment process is performed and described in following sequence: • i. […] The (Bq) value per second was measured using the gamma radioimmunoassay counter.

Wistar rats = assay: Tail flick test (thermal radiation), Periaqueductal Gray injection; assay type: in vivo; details: PAG injection; for latency induced by thermal radiation (tail flick): 1.5, 3.0 and 6.0 μg/kg; for time at which analgesic effect appeared / time at which analgesic effect peaked: after drug administration; for maximum increase of pain threshold: tail flick
Protocol: Most commonly, an intense light beam is focused on the animal's tail and a timer starts. When the animal flicks its tail, the timer stops and the recorded time (latency) is a measure of the pain threshold.
METHODS: Periaqueductal Gray (PAG) was injected with selected cobrotoxin molecule in rats, and the central analgesic effect was evaluated by the tail flick due to thermal radiation. 20 Wistar rats with a weight of 200±20 g were divided into 2 groups, 10 per group. […] The analgesic effect of Chain A, Cobrotoxin and Chain A, Cobrotoxin B appeared in 10˜15 minutes and peaked at 25˜30 minutes after drug administration. The maximum increase of pain threshold was over 200%.

mice = details: i.c.v. injection, mice (Chen and Robinson, 1990); cited from earlier work

Molecule | time course of reaching bECF brain concentration versus cobrotoxins complexes [1] | frequency of writhing induced by acetic acid (Kunming mice [2]) | duration of analgesic effect (Kunming mice [2]) | ED50 of the anti-nociceptive effect of acetic acid induced writhing (Kunming mice [2]) | time at which analgesic effect started (Kunming mice [2]) | respiratory inhibition (Kunming mice [3]) | inhibitory rate of mice writhing (Kunming mice [4]) | time at which analgesic effect started (Kunming mice [4]) | frequency of writhing induced by acetic acid (Kunming mice [4]) | ED50 of the anti-nociceptive effect of acetic acid induced writhing (Kunming mice [4]) | frequency of writhing induced by acetic acid (Kunming mice [5]) | ED50 of the anti-nociceptive effect of acetic acid induced writhing (Kunming mice [5]) | 125I-αBtx-nAChR binding inhibitory rate (nAChR) | latency induced by thermal radiation (tail flick) (Wistar rats) | ED50 of the antinociceptive effect of thermal radiation-induced tail flick (Wistar rats) | time at which analgesic effect appeared (Wistar rats) | time at which analgesic effect peaked (Wistar rats) | maximum increase of pain threshold (Wistar rats) | antinociceptive response in tail-flick test (mice)
Chain A, Cobrotoxin B | always ahead of the cobrotoxins complexes in reaching a specific concentration | dose-dependent decrease | ≥ 6 h | 38˜46 μg/kg | 30 min | No respiratory inhibition was observed | 60˜70% | 30 min | dose-dependent decrease | 40˜50 μg/kg | dose-dependent decrease | 300˜350 μg/kg | 40%-50% | dose-dependent increase | 3.3˜4.0 μg/kg | 10˜15 minutes | 25˜30 minutes | over 200% | 
cobrotoxin (protein, UniProt P60770 22-83, looked up) Cobrotoxin: LECHNQQSSQTPTTTGCSGGETNCYKKRWRDHRGYRTERGCGCPSVKNGIEINCCTTDRCNN |  |  |  |  |  |  |  |  |  |  |  |  |  |  |  |  |  |  | produced an antinociceptive response
Chain A, Cobrotoxin (protein, UniProt P60770 22-83, looked up) Cobrotoxin: LECHNQQSSQTPTTTGCSGGETNCYKKRWRDHRGYRTERGCGCPSVKNGIEINCCTTDRCNN | always ahead of the cobrotoxins complexes in reaching a specific concentration | dose-dependent decrease | ≥ 6 h | 38˜46 μg/kg | 30 min | No respiratory inhibition was observed | 60˜70% | 30 min | dose-dependent decrease | 40˜50 μg/kg | dose-dependent decrease | 300˜350 μg/kg | 40%-50% | dose-dependent increase | 3.3˜4.0 μg/kg | 10˜15 minutes | 25˜30 minutes | over 200% | 

From patent publication US20200093866A1, “Use of selected single cobrotoxin molecule as an analgesic” (priority 2018, published 2020)
